{"source": "patent US8652467B2", "about": "“Dek protein compositions and methods of using the same” (The Regents of the University of Michigan, priority 2005, dated 2014)", "molecules": {"B1": {"name": "DEK: full-length recombinant DEK protein produced in baculovirus (protein, UniProt P35659 1-375, looked up)", "chain": "MSASAPAAEGEGTPTQPASEKEPEMPGPREESEEEEDEDDEEEEEEEKEKSLIVEGKREKKKVERLTMQVSSLQREPFTIAQGKGQKLCEIERIHFFLSKKKTDELRNLHKLLYNRPGTVSSLKKNVGQFSGFPFEKGSVQYKKKEEMLKKFRNAMLKSICEVLDLERSGVNSELVKRILNFLMHPKPSGKPLPKSKKTCSKGSKKERNSSGMARKAKRTKCPEILSDESSSDEDEKKNKEESSDDEDKESEEEPPKKTAKREKPKQKATSKSKKSVKSANVKKADSSTTKKNQNSSKKESESEDSSDDEPLIKKLKKPPTDEELKETIKKLLASANLEEVTMKQICKKVYENYPTYDLTERKDFIKTTVKELIS", "modifications": "full-length", "notes": "full-length recombinant DEK protein produced in baculovirus"}}, "key": {"[1]": {"test_system": "monocyte-depleted peripheral white blood cells", "assay": "In vitro migration assay with monocyte-depleted peripheral white blood cells", "type": "cell-based, human", "experimental": "(A). […] Day 12 MDM grown in 10% serum were maintained for 12 h in serum-free conditioned media alone or with 10 ng/ml of recombinant IL-8. Supernatants were harvested, and secreted DEK detected in the supernatant by Western blot using DEK-specific monoclonal antibody. (B). DEK is a chemoattractant. Monocyte-depleted peripheral white blood cells were prepared. 1×10^5 cells in 100 μl RPMI were placed in the upper chambers of a 24-well chemotaxis microchamber plate with pore size of 3 μM. Lower chambers contained RPMI medium with various concentrations of recombinant DEK (made in baculovirus), recombinant GLI-2 control protein (also made in baculovirus), or no protein control (C′). After 1 h, the number of fluorescently labeled migrating cells in the lower chamber was determined at 485 nM/535 nm wavelengths by Tecan GENios (Phenix, Austria). The results are expressed as the average fold increase of the number of cells migrating toward DEK or GLI-2 compared to control wells containing medium only. Data shown using 34 nM and 68 nM DEK are the average of three different donors, while data using 136 nM DEK are the average of six different donors. […] (C). […] Fluorescence profiles were recorded by FACS analysis. The results are expressed as the average fold increase of the percentage of cells migrating toward DEK vs. control wells containing medium only. […]"}, "neutrophils": {"test_system": "neutrophils", "assay": "Neutrophil migration into the peritoneum after intraperitoneal injection", "type": "in vivo, C57BL6 mice", "conditions": "50 μg intraperitoneal, 8 h following injection, vs GLI-2 and PBS controls", "experimental": "(A). Purified neutrophils were placed in the upper chambers of a 24-well chemotaxis microchamber plate with pore size of 3 μM or 5 μM. Lower chambers contained RPMI medium with various concentrations of recombinant DEK, as indicated. The bar labeled “control” contained only media in the lower chamber. The bar labeled “DEK up” had DEK in the upper chamber and media in the lower chamber. […] (B). Groups of mice received intraperitoneal injections of either PBS or 50 μg of either LPS, recombinant DEK, or a recombinant protein control prepared in parallel to DEK in baculovirus (an isoform of human GLI-2). Twenty mice were tested in each of the four groups. Half of the mice in each group were sacrificed after 4 hours (white bars), and the other half at 8 hours (black bars) after intraperitoneal injection, and then subjected to peritoneal lavage. The bars represent the average number of neutrophils migrating into the peritoneum of each group of mice.\nIn order to confirm that DEK is a chemoattractant, an in vivo murine model was used. Four groups of twenty 4-6 week old male C57BL6 mice were injected intraperitoneally with 50 μg of DEK, 50 μg of a recombinant control protein also prepared in baculovirus (GLI-2) (See, e.g., Smith et al., J Virol 75, 2301-13 (2001)), 50 μg of LPS, or PBS alone."}, "[2]": {"test_system": "Human Microvascular Endothelial Cells (HMVEC)", "assay": "HMVEC chemotaxis (cell migration assay)", "type": "cell-based", "conditions": "3.5 μg purified recombinant DEK vs purification buffer control", "experimental": "Cell migration assay (See, e.g., Koch et al., Arthritis & Rheumatism 44: 31-40, (2001)) was performed with either 3.5 μg of purified, recombinant DEK diluted in PBS, or with just the purification buffer diluted in PBS (control). Nine high-power fields were assayed per sample, and results expressed as the number of cells migrating per well. Error bars show the mean deviation of two separate experiments (*p=0.0249)."}, "circular SV-40 DNA": {"test_system": "circular SV-40 DNA", "assay": "Topology assay with His-DEK and GST-ALY", "type": "biochemical", "conditions": "in the presence of 1 U topoisomerase I", "experimental": "10 ng (0.003 pmol) of circular SV-40 DNA was incubated with 2, 4 or 8 pmol of HIS-DEK (DEK) or GST-ALY (ALY) or either 2 or 4 pmol HIS-DEK and 2, 4 or 8 pmol GST-ALY in the presence of 1 U topoisomerase I. As a control for the functionality of topoisomerase I, SV-40 DNA was incubated either with or without topo I in the absence of GST-ALY and DEK. After 1 h at 37° C., the samples were treated with Proteinase K, and the DNA was purified and analyzed by agarose gel electrophoresis (0.8% at 2V/cm) and SybrGold staining."}}, "note": "“Also recorded” adds a separate entry of the source.", "data": [{"molecule": "B1", "values": [{"measurement": "migration of CD8+ cells and CD56+ cells towards DEK", "setting": "[1]; 79 nM DEK, 1 hour, FACS analysis, vs medium only", "value": "statistically significant"}, {"measurement": "migration of white blood cells toward DEK", "setting": "[1]; 34, 68, 136 nM DEK in lower chamber, 1 h, vs GLI-2 control protein or media alone", "value": "statistically significant; also recorded: increase in a dose-dependent fashion"}, {"measurement": "neutrophil migration into the peritoneum", "setting": "neutrophils", "value": "significantly increased the infiltration of neutrophils; also recorded: significantly induces neutrophil migration"}, {"measurement": "endothelial cell chemotaxis", "setting": "[2]", "value": "does attract endothelial cells"}, {"measurement": "induction of DNA supercoiling", "setting": "circular SV-40 DNA", "value": "induced supercoiling"}]}]}
